Data as given in US20080026996A1, “Selective Vpac2 Receptor Reptide Agonists” (ELI LILLY AND COMPANY, priority 2004, published 2008).
Where two headings read alike, the source gives them in different places. Where no end group is shown, it is not given here. [ ]: non-standard residue; d: D form. The star is where a group is joined. hArg = N=C(N)NCCCC[C@H](N)C(=O)O; Hexanoyl = CCCCCC(=O)*; Aib = CC(C)(N)C(=O)O

T1: human VPAC2 (Homo sapiens, UniProt P41587)
T1 construct: expressed in transfected cells
T1 sequence (P41587 24-438): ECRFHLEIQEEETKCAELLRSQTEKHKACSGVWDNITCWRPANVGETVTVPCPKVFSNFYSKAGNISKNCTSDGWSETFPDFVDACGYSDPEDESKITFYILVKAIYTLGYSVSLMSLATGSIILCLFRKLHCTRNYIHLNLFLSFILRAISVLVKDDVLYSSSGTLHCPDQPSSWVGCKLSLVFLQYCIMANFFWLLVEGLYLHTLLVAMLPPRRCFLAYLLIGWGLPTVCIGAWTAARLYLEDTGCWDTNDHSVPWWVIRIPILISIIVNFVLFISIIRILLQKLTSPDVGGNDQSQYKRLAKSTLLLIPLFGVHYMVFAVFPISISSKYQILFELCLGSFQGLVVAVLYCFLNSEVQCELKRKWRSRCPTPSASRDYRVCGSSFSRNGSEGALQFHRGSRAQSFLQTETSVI

T2: human VPAC1 (Homo sapiens, UniProt P32241)
T2 sequence (P32241 31-457): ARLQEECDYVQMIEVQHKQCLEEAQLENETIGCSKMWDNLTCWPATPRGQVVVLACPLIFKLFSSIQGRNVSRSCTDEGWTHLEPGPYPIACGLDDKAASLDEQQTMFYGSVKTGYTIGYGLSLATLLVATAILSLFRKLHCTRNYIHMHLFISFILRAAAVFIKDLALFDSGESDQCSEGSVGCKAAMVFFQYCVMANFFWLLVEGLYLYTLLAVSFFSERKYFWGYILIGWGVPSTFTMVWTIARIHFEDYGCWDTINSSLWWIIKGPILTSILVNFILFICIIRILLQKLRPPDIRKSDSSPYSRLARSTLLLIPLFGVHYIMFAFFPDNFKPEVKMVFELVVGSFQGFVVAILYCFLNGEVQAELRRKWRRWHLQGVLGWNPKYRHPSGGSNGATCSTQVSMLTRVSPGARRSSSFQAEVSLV

T3: human PAC1 (Homo sapiens, UniProt P41586)
T3 sequence (P41586 21-468): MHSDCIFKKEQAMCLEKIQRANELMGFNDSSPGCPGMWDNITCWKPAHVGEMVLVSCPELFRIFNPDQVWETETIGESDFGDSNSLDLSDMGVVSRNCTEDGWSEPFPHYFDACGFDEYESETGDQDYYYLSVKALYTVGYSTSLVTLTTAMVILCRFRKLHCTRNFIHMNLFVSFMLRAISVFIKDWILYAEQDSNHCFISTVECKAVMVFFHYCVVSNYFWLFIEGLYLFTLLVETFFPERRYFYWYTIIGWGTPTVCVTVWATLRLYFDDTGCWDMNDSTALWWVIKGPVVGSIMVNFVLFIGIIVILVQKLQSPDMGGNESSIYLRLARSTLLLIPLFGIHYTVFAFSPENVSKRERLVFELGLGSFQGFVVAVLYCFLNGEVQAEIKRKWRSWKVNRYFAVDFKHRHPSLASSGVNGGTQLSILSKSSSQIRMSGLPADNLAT

T4: human VPAC1 receptor (human, UniProt P32241 31-457)
T4 sequence (looked up): T2 sequence (P32241 31-457)

T5: human PAC1 receptor (human, UniProt P41586 21-468)
T5 sequence (looked up): T3 sequence (P41586 21-468)

T6: human VPAC2 receptor (human, UniProt P41587 24-438)
T6 sequence (looked up): T1 sequence (P41587 24-438)


What was measured:
human VPAC2 [1] = molecular target: T1, human VPAC2; assay: Alpha screen cAMP in vitro potency, human VPAC2 receptor; assay type: cell-based; details: cAMP generation; single result from two analyses performed in a single run; read-out: Human VPAC2 Receptor: Alpha Screen EC50
Procedure, shortened: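 Under reduced light, acceptor beads accompany the stimuli during a 60-minute incubation of cells in stimulation buffer (50,000 per well point). Donor beads go in with lysis buffer for a further 60–120 minutes, and the resulting AlphaScreen signal indicates cAMP levels.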

human VPAC2 [2] = molecular target: T1, human VPAC2; assay: Filter binding assay, membranes of stable VPAC2 cell line, 125I-labeled VIP tracer (Table 2); details: read-out: Human VPAC2 Receptor Binding
Procedure, shortened: (§1)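 Competition binding of agonists against radiotracer on receptor membranes (2.5 μg) in 25 mM HEPES pH 7.4 with 0.5% protease-free BSA, about 40000 cpm tracer, 1 hour with shaking. Bound tracer was separated by filtration on PEI-presoaked, BSA-blocked glass-fibre filters, washed and counted by scintillation.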

[3] = Rat serum stability studies (remaining active peptide by DiscoveRx cAMP on CHO-VPAC2 cells); assay type: in vitro ADME
Procedure, shortened: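 Rat serum, 18 h: +aprotinin aliquot at 4° C, no-aprotinin aliquot at 37° C. Then 30 min RT step, supernatant removed, 1 h shaking at 300 rpm. DiscoveRx cAMP kit on CHO-VPAC2; EC50 from cAMP data vs standards.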

human VPAC1 = molecular target: T2, human VPAC1; assay: Filter binding assay, membranes of cells transiently transfected with human VPAC1, 125I-labeled VIP tracer (Table 2); parameters: expressed in transfected cells; details: read-out: Human VPAC1 Receptor Binding
Procedure, shortened: as §1

human PAC1 = molecular target: T3, human PAC1; assay: Filter binding assay, membranes of cells transiently transfected with human PAC1, 125I-labeled PACAP-27 tracer (Table 2); parameters: expressed in transfected cells; details: read-out: Human PAC1 Receptor Binding
Procedure, shortened: as §1

human VPAC1 receptor = molecular target: T4, human VPAC1 receptor; assay: cell-based or functional assay
human PAC1 receptor = molecular target: T5, human PAC1 receptor; assay: cell-based or functional assay
human VPAC2 receptor = molecular target: T6, human VPAC2 receptor; assay: cell-based or functional assay

Row | Molecule | EC50 cAMP, DiscoveRx (human VPAC1 receptor) | EC50 cAMP, DiscoveRx (human PAC1 receptor) | EC50 cAMP, Alpha Screen (human VPAC2 receptor) | EC50 cAMP, DiscoveRx (human VPAC2 receptor) | further results
1 | Hexanoyl-HSDAVFTDNYTRLRKQVAAAKYLQSIKNKRYGGPSSGAPPPS [Agonist P181] |  |  |  |  | EC50 (human VPAC2 [1]): 0.13 nM; IC50 (human VPAC2 [2]): 0.29 nM; Rat Serum Stability (estimated purity in % after 18 hours) [3]: <0.53%; IC50 (human VPAC1): 325 nM; IC50 (human PAC1): 522 nM
2 | Hexanoyl-HSDAVFTDNYTRL[Aib]KQLAA[Aib]KYLQSIKNKRYGGPSSGAPPPS [Agonist P240] |  |  |  |  | EC50 (human VPAC2 [1]): 0.51 nM; IC50 (human VPAC2 [2]): 6.08 nM; Rat Serum Stability (Estimated purity in % after 72 hours) [3]: 10.4%; Rat Serum Stability (estimated purity in % after 18 hours) [3]: 43.87%; IC50 (human VPAC1): > 3000 nM; IC50 (human PAC1): > 25000 nM
3 | Hexanoyl-HSDAVFTDNYTRLRKQVAAKAYLQSIKNKRYGGPSSGAPPPS [Agonist P184] |  |  |  |  | EC50 (human VPAC2 [1]): 0.22 nM; IC50 (human VPAC2 [2]): 0.23 nM; Rat Serum Stability (estimated purity in % after 18 hours) [3]: 0.29%; IC50 (human VPAC1): 324 nM; IC50 (human PAC1): 339 nM
4 | HSDAVFTDNYTRLRKQVAA[hArg]KYLQSIKNKRYGGPSSGAPPPS (ends and bridges not checked) [P18] | 0.4 nM | > 50 nM |  |  | EC50 cAMP, DiscoveRx (human PAC1 receptor; record 2): 435 nM
5 | Ac-HSDAVFTDNYTRLRKQVAAKKYLQSIKNKRYGGPSSGAPPPS [P33] | 4.7 nM | 112 nM | 0.73 nM | 0.86 nM | 
6 | HSDAVFTDNYTRLRKQVAAKKYLQSIKNKRF [P34] | 0.8 nM | 80.5 nM | 2.44 nM | 2.28 nM | 
7 | HSDAVFTDNYTRLRKQVAAKKYLQSI[hArg]NKRYGGPSSGAPPPS (ends and bridges not checked) [P22] | 0.9 nM | 73.5 nM | 2.23 nM | 1.18 nM | 
8 | HSDAVFTDNYTRLRKQVAAKKYLQSIKNKRYC [P37] | 6.4 nM | 35.6 nM |  | 1.68 nM | 
9 | HSDAVFTDNYTRLRKQVAAIKYLQSIKNKRYGGPSSGAPPPS (not fully specified) [P19] | 2.9 nM |  |  | 9.03 nM | 
10 | HSDAVFTDNWTRLRKQVAAKKYLQSIKNKRYGGPSSGAPPPS [P27] | 5.2 nM | > 100 nM |  | 27.6 nM | 
11 | HGDAVFTDNYTRLRKQVAAKKYLQSIKNKRYGGPSSGAPPPS [P43] | 75.6 nM | 104 nM |  | 5.37 nM | 
12 | HSDAVFTDNYTRLRKQVAAKKYLQSIKNKRHGGPSSGAPPPS [P28] | 2.6 nM | 53.6 nM |  | 3.92 nM | 
13 | HSDAVFTDNYTRFRKQVAAKKYLQSIKNKRYGGPSSGAPPPS [P26] | 0.9 nM | 84 nM |  | 4.81 nM | 
14 | HSDIVFTDNYTRLRKQVAAKKYLQSIKNKRYGGPSSGAPPPS (not fully specified) [P50] | 111 nM |  |  | 19.2 nM | 
15 | HSDAVFTDNYTRLRKQVAARKYLQSIKNKRYGGPSSGAPPPS [P20] | 2 nM | > 25 nM | 2.77 nM | 2.13 nM | 
16 | HSDAVFTDNYTRLRRQVAARRYLQSIRNRRYGGPSSGAPPPS (not fully specified) [P71] | 0.2 nM | 14.6 nM |  | 3.14 nM | 
17 | HSDAVFTDNYTRLRKQVAAKKYLQSIRNKRYGGPSSGAPPPS [P23] | 0.9 nM | 98.3 nM | 2.3 nM | 1.41 nM | 
18 | HSDAVFTDNYTRLRKQVAAKKYLQSIKNRRYGGPSSGAPPPS [P25] | 2.7 nM | 137 nM |  | 3.02 nM | 
19 | HSDAVFTDNYTRLRKQVAASKYLQSIKNKRYGGPSSGAPPPS [P21] | 10.7 nM | > 100 nM | 11.6 nM | 6.87 nM | 
20 | H[dA]DAVFTDNYTRLRKQVAAKKYLQSIKNKRYGGPSSGAPPPS [P47] | 3.6 nM | 136 nM | 1.39 nM | 1.07 nM | 
21 | HSDAVFTDNYTRLRRQVAAKKYLQSIKNKRYGGPSSGAPPPS [P72] | 0.3 nM | 35.3 nM |  | 1.79 nM | 
22 | HSDAVFTDNYTRLRKQVAAKKYLQSIKN[hArg]RYGGPSSGAPPPS (ends and bridges not checked) [P24] | 2.5 nM | > 100 nM |  | 5.78 nM | 
